In publication PMC7587234:

Tests used:
Assay in all cases: SPR
[1] = molecular target: cynomolgus monkey neonatal Fc receptor (cyno FcRn), soluble heterodimer (UniProt Q8SPV9+Q8SPW0); details: pH 7.4; not stated (pH 7.4)
[2] = molecular target: human neonatal Fc receptor (hFcRn), soluble heterodimer (UniProt P55899+P61769); details: pH 7.4; not stated (pH 7.4)
[3] = molecular target: FcγRIIIa (UniProt P08637)
[4] = molecular target: biotinylated cynomolgus FcRn, p51 subunit with β2-m (cynomolgus monkey) (UniProt Q8SPV9)
[5] = molecular target: biotinylated human neonatal Fc receptor (hFcRn), p51 subunit with β2-m (human) (UniProt P55899)

Chain of UniProt P08637 (P08637 17-208): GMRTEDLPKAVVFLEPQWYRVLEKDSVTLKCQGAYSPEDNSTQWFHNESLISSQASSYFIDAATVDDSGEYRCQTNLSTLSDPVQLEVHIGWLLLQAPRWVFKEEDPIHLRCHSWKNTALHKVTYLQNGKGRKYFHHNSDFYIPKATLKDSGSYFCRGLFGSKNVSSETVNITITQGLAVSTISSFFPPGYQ
Chain of UniProt Q8SPV9 (Q8SPV9 24-297, chain 1 of 2): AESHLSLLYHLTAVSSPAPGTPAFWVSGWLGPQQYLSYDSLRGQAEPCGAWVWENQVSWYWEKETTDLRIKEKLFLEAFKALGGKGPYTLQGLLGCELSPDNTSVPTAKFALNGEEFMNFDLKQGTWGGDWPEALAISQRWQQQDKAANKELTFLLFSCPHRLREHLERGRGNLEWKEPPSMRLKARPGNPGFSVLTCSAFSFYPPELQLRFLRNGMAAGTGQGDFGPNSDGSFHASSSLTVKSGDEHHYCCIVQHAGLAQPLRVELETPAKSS
Chain of UniProt Q8SPV9 (Q8SPW0 21-119, chain 2 of 2, further chain): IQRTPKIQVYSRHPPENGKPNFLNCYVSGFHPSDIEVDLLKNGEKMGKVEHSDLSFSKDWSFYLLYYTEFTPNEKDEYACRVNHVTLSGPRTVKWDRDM

| Steady State RU [1] [RU] | Steady State RU [2] [RU] | Kd [3] [nM] | Kd [4] [nM] | Steady State RU, at pH 7.4 [4] [RU] | Kd [5] [nM] | Steady State RU, at pH 7.4 [5] [RU] | Substance |
| --- | --- | --- | --- | --- | --- | --- | --- |
| 55.7 | 68.4 | – | – | – | – | – | adalimumab LS M428L;N434S |
| 2.5 | 2.7 | – | – | – | – | – | adalimumab WT Fc (labelled mAb2 in Table 2, mAb3 in Tables 1 and 3) |
| – | – | 196 | 48 | 55.7 | 500 | 68.4 | adalimumab with the LS Fc-backbone mutation (M428L/N434S) (antibody) |
| – | – | 194 | 1100 | – | 645 | – | adalimumab, wild-type Fc (antibody) |
| 10.9 | 14 | – | – | – | – | – | bevacizumab (mAb1) DQ T256D;T307Q |
| 14.8 | 18 | – | – | – | – | – | bevacizumab (mAb1) DW T256D;T307W |
| 38.3 | 44 | – | – | – | – | – | bevacizumab (mAb1) LS M428L;N434S |
| 1.3 | 1.3 | – | – | – | – | – | bevacizumab (mAb1) WT Fc |
| 22.2 | 27 | – | – | – | – | – | bevacizumab (mAb1) YD M252Y;T256D |
| – | – | 361 | 110 | 10.9 | 89 | 14 | mAb1 (bevacizumab) with the DQ Fc-backbone mutation (T256D/T307Q) (antibody) |
| – | – | 329 | 99 | 14.8 | 126 | 18 | mAb1 (bevacizumab) with the DW Fc-backbone mutation (T256D/T307W) (antibody) |
| – | – | 307 | 210 | 38.3 | – | 44 | mAb1 (bevacizumab) with the LS Fc-backbone mutation (M428L/N434S) (antibody) |
| – | – | 645 | 120 | 22.2 | 86 | 27 | mAb1 (bevacizumab) with the YD Fc-backbone mutation (M252Y/T256D) (antibody) |
| – | – | 377 | 1440 | – | 500 | – | mAb1 (bevacizumab), wild-type Fc (antibody) |
